The nature of this series: total protein half-life in vivo (active degradation + dilution); higher = more stable protein.
Setting [1] is: E. coli NCM3722 delta-clpP delta-lon delta-hslV, growth: N-lim chemostat, doubling time 6 h.
[2] abbreviates: E. coli NCM3722 delta-clpP, growth: N-lim chemostat, doubling time 6 h.
[3] abbreviates: E. coli NCM3722 delta-lon, growth: N-lim chemostat, doubling time 6 h.
[4] abbreviates: E. coli NCM3722 delta-smpB, growth: N-lim chemostat, doubling time 6 h.
Setting [5] is: wild type E. coli NCM3722, growth: N-lim chemostat, doubling time 6 h.
Setting [6] is: wild type E. coli NCM3722, growth: P-lim chemostat, doubling time 12 h.
Where [7] appears, read: E. coli NCM3722 delta-hslV, growth: N-lim chemostat, doubling time 6 h.
The mark [8] stands for this setting: wild type E. coli NCM3722, growth: C-lim chemostat, doubling time 12 h.
[9] abbreviates: wild type E. coli NCM3722, growth: N-lim chemostat, doubling time 12 h.
The mark [10] stands for this setting: wild type E. coli NCM3722, growth: C-lim chemostat, doubling time 3 h.
Where [11] appears, read: wild type E. coli NCM3722, growth: C-lim chemostat, doubling time 6 h.
Setting [12] is: wild type E. coli NCM3722, growth: P-lim chemostat, doubling time 6 h.

± gives the standard deviation of the averaged measurements.

As to “MYDYIIVGSGLFGAVCANELKKLNKKVLVIEKRNHIGGNAYTEDCEGIQIHKYGAHIFHTNDKYIWDYVNDLVEFNRFTNSPLAIYKDKLFNLPFNMNTFHQMWGVKDPQEAQNIINAQKKKYGDKVPENLEEQAISLVGEDLYQALIKGYTEKQWGRSAKELPAFIIKRIPVRFTFDNNYFSDRYQGIPVGGYTKLIEKMLEGVDVKLGIDFLKDKDSLASKAHRIIYTGPIDQYFDYRFGALEYRSLKFETERHEFPNFQGNAVINFTDANVPYTRIIEHKHFDYVETKHTVVTKEYPLEWKVGDEPYYPVNDNKNMELFKKYRELASREDKVIFGGRLAEYKYYDMHQVISAALYQVKNIMSTD”, the “total protein half-life in vivo” value was 6.0745 ± 0.0011 h under setting [1]; 3.11 h under setting [2]; 4.59 ± 0.33 h under setting [3]; 2.83 ± 0.48 h under setting [4]; 3.52 h under setting [5]; 11.8 h under setting [6].

In the case of “MPLVIVAIGVILLLLLMIRFKMNGFIALVLVALAVGLMQGMPLDKVIGSIKAGVGGTLGSLALIMGFGAMLGKMLADCGGAQRIATTLIAKFGKKHIQWAVVLTGFTVGFALFYEVGFVLMLPLVFTIAASANIPLLYVGVPMAAALSVTHGFLPPHPGPTAIATIFNADMGKTLLYGTILAIPTVILAGPVYARVLKGIDKPIPEGLYSAKTFSEEEMPSFGVSVWTSLVPVVLMAMRAIAEMILPKGHAFLPVAEFLGDPVMATLIAVLIAMFTFGLNRGRSMDQINDTLVSSIKIIAMMLLIIGGGGAFKQVLVDSGVDKYIASMMHETNISPLLMAWSIAAVLRIALGSATVAAITAGGIAAPLIATTGVSPELMVIAVGSGSVIFSHVNDPGFWLFKEYFNLTIGETIKSWSMLETIISVCGLVGCLLLNMVI”, the “total protein half-life in vivo” value reads like this: under setting [2], 6.71 ± 1 h; under setting [7], 5.83 ± 0.38 h; under setting [3], 6.2 ± 0.55 h; under setting [4], 6.06 ± 0.3 h; under setting [8], 10 ± 0.67 h; under setting [5], 5.75 h. Also, the “total protein half-life in vivo” value under setting [9] was 13 h.

As for “MKNLIAELLFKLAQKEEESKELCAQVEALEIIVTAMLRNMAQNDQQRLIDQVEGALYEVKPDASIPDDDTELLRDYVKKLLKHPRQ [P0AAN9]”, the “total protein half-life in vivo” value reads like this: under setting [2], 3.74 ± 0.97 h; under setting [7], 4.38 ± 0.94 h; under setting [3], 6.09 ± 1.4 h; under setting [4], 4.195 ± 0.0044 h; under setting [10], 3.54 ± 0.59 h; under setting [11], 4.96 ± 0.47 h. In addition, the “total protein half-life in vivo” value runs as follows: under setting [8], 7.25 ± 1.9 h; under setting [5], 3.43 ± 0.67 h; under setting [9], 8.18 ± 5.6 h; under setting [12], 4.02 ± 1.8 h; under setting [6], 10.1 ± 0.93 h.

In the case of “MNTDTFMCSSDEKQTRSPLSLYSEYQRMEIEFRAPHIMPTSHWHGQVEVNVPFDGDVEYLINNEKVNINQGHITLFWACTPHQLTDTGTCQSMAIFNLPMHLFLSWPLDKDLINHVTHGMVIKSLATQQLSPFEVRRWQQELNSPNEQIRQLAIDEIGLMLKRFSLSGWEPILVNKTSRTHKNSVSRHAQFYVSQMLGFIAENYDQALTINDVAEHVKLNANYAMGIFQRVMQLTMKQYITAMRINHVRALLSDTDKSILDIALTAGFRSSSRFYSTFGKYVGMSPQQYRKLSQQRRQTFPG [P0ACH8]”, the “total protein half-life in vivo” value under setting [2] was determined as 2.09 ± 0.21 h; the “total protein half-life in vivo” value under setting [7] was 2.5 h; the “total protein half-life in vivo” value under setting [4] worked out at 1.89 h; the “total protein half-life in vivo” value under setting [10] was 2.14 ± 0.34 h; the “total protein half-life in vivo” value under setting [11] amounted to 3.43 ± 0.17 h; the “total protein half-life in vivo” value under setting [8] worked out at 4.03 ± 0.28 h. In addition, the “total protein half-life in vivo” value under setting [6] came out at 4.99 ± 1.6 h.

For the sequence “MRVLIVKTSSMGDVLHTLPALTDAQQAIPGIKFDWVVEEGFAQIPSWHAAVERVIPVAIRRWRKAWFSAPIKAERKAFREALQAENYDAVIDAQGLVKSAALVTRLAHGVKHGMDWQTAREPLASLFYNRKHHIAKQQHAVERTRELFAKSLGYSKPQTQGDYAIAQHFLTNLPTDAGEYAVFLHATTRDDKHWPEEHWRELIGLLADSGIRIKLPWGAPHEEERAKRLAEGFAYVEVLPKMSLEGVARVLAGAKFVVSVDTGLSHLTAALDRPNITVYGPTDPGLIGGYGKNQMVCRAPRENLINLNSQAVLEKLSSL”, the “total protein half-life in vivo” value under setting [1] worked out at 5.54 ± 0.21 h; the “total protein half-life in vivo” value under setting [2] was determined as 5.02 ± 0.34 h; the “total protein half-life in vivo” value under setting [7] amounted to 5.1 h; the “total protein half-life in vivo” value under setting [3] came to 5.08 ± 0.063 h; the “total protein half-life in vivo” value under setting [4] was found to be 5.74 ± 1.2 h; the “total protein half-life in vivo” value under setting [10] was determined as 2.76 ± 0.13 h. Also, the “total protein half-life in vivo” value was 5.73 ± 0.28 h under setting [11]; 13.2 ± 2.2 h under setting [8]; 5.72 ± 0.27 h under setting [5]; 11.5 ± 2.6 h under setting [9]; 5.23 ± 0.16 h under setting [12]; 10.63 ± 0.039 h under setting [6].

On to “MTDLPDSTRWQLWIVAFGFFMQSLDTTIVNTALPSMAQSLGESPLHMHMVIVSYVLTVAVMLPASGWLADKVGVRNIFFTAIVLFTLGSLFCALSGTLNELLLARALQGVGGAMMVPVGRLTVMKIVPREQYMAAMTFVTLPGQVGPLLGPALGGLLVEYASWHWIFLINIPVGIIGAIATLLLMPNYTMQTRRFDLSGFLLLAVGMAVLTLALDGSKGTGLSPLTIAGLVAVGVVALVLYLLHARNNNRALFSLKLFRTRTFSLGLAGSFAGRIGSGMLPFMTPVFLQIGLGFSPFHAGLMMIPMVLGSMGMKRIVVQVVNRFGYRRVLVATTLGLSLVTLLFMTTALLGWYYVLPFVLFLQGMVNSTRFSSMNTLTLKDLPDNLASSGNSLLSMIMQLSMSIGVTIAGLLLGLFGSQHVSVDSGTTQTVFMYTWLSMALIIALPAFIFARVPNDTHQNVAISRRKRSAQ”, for which the “total protein half-life in vivo” value under setting [6] was determined as 15.7 h.

In the case of “MNNNDLVAKLWKLCDNLRDGGVSYQNYVNELASLLFLKMCKETGQEAEYLPEGYRWDDLKSRIGQEQLQFYRKMLVHLGEDDKKLVQAVFHNVSTTITEPKQITALVSNMDSLDWYNGAHGKSRDDFGDMYEGLLQKNANETKSGAGQYFTPRPLIKTIIHLLKPQPREVVQDPAAGTAGFLIEADRYVKSQTNDLDDLDGDTQDFQIHRAFIGLELVPGTRRLALMNCLLHDIEGNLDHGGAIRLGNTLGSDGENLPKAHIVATNPPFGSAAGTNITRTFVHPTSNKQLCFMQHIIETLHPGGRAAVVVPDNVLFEGGKGTDIRRDLMDKCHLHTILRLPTGIFYAQGVKTNVLFFTKGTVANPNQDKNCTDDVWVYDLRTNMPSFGKRTPFTDEHLQPFERVYGEDPHGLSPRTEGEWSFNAEETEVADSEENKNTDQHLATSRWRKFSREWIRTAKSDSLDISWLKDKDSIDADSLPEPDVLAAEAMGELVQALSELDALMRELGASDEADLQRQLLEEAFGGVKE”, the “total protein half-life in vivo” value runs as follows: under setting [1], 5.68 ± 0.29 h; under setting [2], 4.9709 ± 0.0002 h; under setting [7], 4.85 ± 0.48 h; under setting [3], 4.72 ± 0.37 h; under setting [4], 4.17 ± 0.28 h; under setting [10], 2.586 ± 0.0099 h. Moreover, the “total protein half-life in vivo” value under setting [11] is 5.252 ± 0.027 h; the “total protein half-life in vivo” value under setting [8] came to 9.58 ± 1 h; the “total protein half-life in vivo” value under setting [5] is 4.476 ± 0.014 h; the “total protein half-life in vivo” value under setting [9] turned out to be 7.36 ± 0.36 h; the “total protein half-life in vivo” value under setting [12] was 5.18 ± 0.24 h; the “total protein half-life in vivo” value under setting [6] stood at 10.5 ± 0.66 h.

In the case of “MPEVQTDHPETAELSKPQLRMVDLNLLTVFDAVMQEQNITRAAHVLGMSQPAVSNAVARLKVMFNDELFVRYGRGIQPTARAFQLFGSVRQALQLVQNELPGSGFEPASSERVFHLCVCSPLDSILTSQIYNHIEQIAPNIHVMFKSSLNQNTEHQLRYQETEFVISYEDFHRPEFTSVPLFKDEMVLVASKNHPTIKGPLLKHDVYNEQHAAVSLDRFASFSQPWYDTVDKQASIAYQGMAMMSVLSVVSQTHLVAIAPRWLAEEFAESLELQVLPLPLKQNSRTCYLSWHEAAGRDKGHQWMEEQLVSICKR”, the “total protein half-life in vivo” value under setting [1] was 5.69 ± 0.67 h and the “total protein half-life in vivo” value under setting [2] was determined as 1.07 h.

These data come from the supplement of paper PMC11246515.
